The experiment deals with Escherichia coli RNA polymerase holoenzyme with σ^70, in the initially stalled complex (E. coli) (UniProt P00579).
Chain of UniProt P00579 (P00579 whole entry, looked up, one chain of several): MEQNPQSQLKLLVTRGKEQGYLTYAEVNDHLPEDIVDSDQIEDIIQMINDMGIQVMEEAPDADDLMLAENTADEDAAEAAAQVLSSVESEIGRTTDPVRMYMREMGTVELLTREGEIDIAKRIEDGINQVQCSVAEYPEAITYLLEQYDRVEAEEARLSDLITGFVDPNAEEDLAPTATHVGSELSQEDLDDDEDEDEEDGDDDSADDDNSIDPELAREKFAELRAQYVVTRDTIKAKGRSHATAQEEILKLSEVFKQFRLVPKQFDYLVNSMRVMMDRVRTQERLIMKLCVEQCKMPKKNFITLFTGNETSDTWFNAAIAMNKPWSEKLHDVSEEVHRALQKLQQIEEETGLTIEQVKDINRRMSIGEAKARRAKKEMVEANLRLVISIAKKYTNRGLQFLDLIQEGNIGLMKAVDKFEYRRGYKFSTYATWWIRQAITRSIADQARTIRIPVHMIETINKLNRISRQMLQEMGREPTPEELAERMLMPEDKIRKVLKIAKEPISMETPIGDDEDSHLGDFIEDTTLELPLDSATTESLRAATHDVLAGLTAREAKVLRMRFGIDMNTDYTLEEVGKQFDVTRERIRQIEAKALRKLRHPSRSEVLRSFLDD

For the substance “Rho (ρ) transcription termination factor, wild type (from UniProt P0AG30 1-419) (enzyme)”, the time constant of the decrease of stand-by TE as the interval between ISC washing and NTP injection is prolonged stood at 693 s.

The values above are taken from publication PMC8964686.
